Measurements: US5445951A, “Regioselective enzymatic deacylation of sucrose esters in anhydrous organic media” (priority 1993, dated 1995)

Legend:
[1] = Solubility in hydrophobic solvents; format: physicochemical; conditions: more hydrophobic solvents, e.g., hexane, cyclohexane, heptane, octane
[2] = SOA deacetylation catalyzed by pH precipitated enzymes in diisopropyl ether; format: biochemical; conditions: for buffer pH (optimal pH for enzyme activity in anhydrous solvents): SOA deacetylation; for SheptaAs / ShexaAs / SOA: diisopropyl ether, 24 hrs incubation, HPLC; for SOA: residual SOA
Description: A wide variety of hydrolytic enzymes were initially screened for their ability to regioselectively deacetylate SOA in organic solvents. […] Enzyme activity is dependent upon the presence of a minimum shell of water surrounding the enzyme. […] It is known that one way to improve the catalytic power of an enzyme in organic solvent is to use it in the right ionic state.
(§1) The pH of commercial powdered enzymes was adjusted in the following way: The enzyme (3 g) was dissolved in 25 ml of an appropriate buffer and the pH adjusted with dilute NaOH or citric/phosphoric acid solution. Cold acetone (37.5 ml at -20° C.) was added and the precipitate collected on a medium porosity glass funnel and dried overnight at 2 millitorr. The protein pellet was ground to a fine powder and equilibrated at 4° C. over saturated aqueous potassium carbonate (RH: 43%) for 24 hrs.
(§2) Enzyme and Solvent Screening for SOA Deacetylation. A scintillation vial was charged successively with 100 mg of powdered enzyme as received or prepared as described and 1.0 ml of 20 mM sucrose octaacetate (SOA) dissolved in an organic solvent. Following a 5 sec sonication, the vial was incubated in a controlled-temperature shaker at 45° C. and 300 RPM for 24 hrs. A 200 μl aliquot of the reaction mixture was withdrawn and centrifuged. The supernatant was collected and evaporated under a stream of N2. The residue was reconstituted in 200 μl of acetonitrile and 10 μl of this solution was analyzed by HPLC.

[3] = Activity and regioselectivity of enzymes for SOA deacetylation; format: biochemical; conditions: for buffer pH (optimal pH for enzyme activity in anhydrous diisopropyl ether): SOA deacetylation; for % conv: total of all sucrose hepta and hexa acetates; for regioselectivity of SOA deacetylation: in words
Description: An important aspect of this work was to assign, unequivocally, the structures of all sucrose hepta-, hexa-, and pentaacetates obtained by enzymatic deacetylation of SOA. These structures were assigned by perdeuterioacetylation followed by ^1 H-NMR, as described by Rathbone E. B., Carbohydr. Res., 205,402 (1990).
HPLC analysis. Routine screening was performed on a Supelcosil LC-18-DB column (150×4.6 mm, 5μ) using an isocratic mode with either acetonitrile/water (35/65) or acetonitrile/water (60/40) as eluant for reactions involving sucrose octaacetate (SOA) and sucrose octapropionate (SOP), respectively. All flow rates were 1.0 ml/min with UV detection at 220 nm. To identify all products from SOA deacetylation, a gradient mode was employed using 15% to 35% acetonitrile in water over 40 minutes followed by 35/65 acetonitrile/water isocratic elution for 20 minutes. To screen nucleophiles for SOA deacetylation, an isocratic elution mode was employed using 30/70 acetonitrile/water for 16 min followed by a gradient from 30% to 35% acetonitrile in water over 5 min and finally isocratic elution using 35/65 acetonitrile/water for 16 min. To assess the enzyme regiochemistry for SOA deacetylation, an isocratic elution mode was employed using 25/75 acetonitrile/water for 55 minutes.
Identification of the Sucrose Hepta, Hexa or Pentaacetates Obtained Enzymatically. The fraction of sucrose hepta, hexa or pentaacetates were identified as follows. The compound(s) of interest was dissolved in 1.0 ml 99.0 atom % pyridine--d5 followed by addition of 1.0 ml 99 +atom % acetic anhydride--d6. The resulting solution was shaken at 45° C. and 300 RPM for several hours until TLC analysis (silica gel, 9/1 CHCl3 /MeOH) indicated complete reaction. The reaction mixture was evaporated in vacuo and the residue washed several times with water to remove residual pyridine-d5 and/or acetic anhydride-d6. The resulting oily solid was dissolved in 5 ml off chloroform and passed through Whatmann 12.5 cm 1 PS silicone treated filter paper to remove water.
as §1, §2

[4] = SOP hydrolytic enzyme screen in heptane with n-butanol; format: biochemical; conditions: 24 hrs; for SheptaP's ([…]): HPLC peak […]; for SOP: residual SOP; as to SheptaP's ([…]): HPLC peak 8.2 min
Description: To extend the scope and utility of this study, sucrose octapropionate was synthesized and used as substrate in enzyme catalyzed deacylation reactions. […] The hydrolytic enzymes were screened for their capability to deacylate SOP in heptane with n-butanol as the nucleophile. After 24 hrs incubation aliquots were analyzed by HPLC.
as §2, with “screening” for “and Solvent Screening”, “SOP deacylation in heptane.” for “SOA Deacetylation.”, “octapropionate (SOP) and 200 mM butanol” for “octaacetate (SOA)”, “and” for “and evaporated under a stream of N2. The residue was reconstituted in 200 μl of acetonitrile and”

[5] = SOP deacylation catalyzed by pH precipitated enzymes in diisopropyl ether; format: biochemical; conditions: for buffer pH (optimal pH for enzyme activity in anhydrous media): SOP deacylation; for SOP / SheptaP's / ShexaP's: diisopropyl ether, 24 hrs
Description: To increase the number and/or activities of enzymes active with SOP, pH precipitation experiments, as described for SOA, were undertaken.
as §1

[6] = as obtained from supplier; cited from earlier work
[7] = HPLC sucrose heptaacetate peak height

Molecule: CCC(=O)OC[C@H]1O[C@@](COC(=O)CC)(O[C@H]2O[C@H](COC(=O)CC)[C@@H](OC(=O)CC)[C@H](OC(=O)CC)[C@H]2OC(=O)CC)[C@@H](OC(=O)CC)[C@@H]1OC(=O)CC [SOP, sucrose octapropionate]
- solubility versus SOA [1]: significantly enhanced solubility

Molecule: chymotrypsin
- buffer pH (optimal pH for enzyme activity in anhydrous solvents) [2]: 8.0
- SheptaAs [2]: 2.5%
- ShexaAs [2]: 0%
- SOA [2]: 97.5%
- buffer pH (optimal pH for enzyme activity in anhydrous diisopropyl ether) [3]: 8.0
- % conv [3]: < 6%
- SheptaP's ([…]) [4]: 3.9
- SOP [4]: 96.1%
- buffer pH (optimal pH for enzyme activity in anhydrous media) [5]: 8.0
- SOP [5]: 98.2%
- SheptaP's [5]: 1.8%
- ShexaP's [5]: 0%
- enzyme activity [6]: 48 U/mg

B1: lipase type II: Sigma, porcine pancreas, 50 U/mg (protein, UniProt P00591 1-450, looked up)
Pancreatic triacylglycerol …: SEVCFPRLGCFSDDAPWAGIVQRPLKILPWSPKDVDTRFLLYTNQNQNNYQELVADPSTITNSNFRMDRKTRFIIHGFIDKGEEDWLSNICKNLFKVESVNCICVDWKGGSRTGYTQASQNIRIVGAEVAYFVEVLKSSLGYSPSNVHVIGHSLGSHAAGEAGRRTNGTIERITGLDPAEPCFQGTPELVRLDPSDAKFVDVIHTDAAPIIPNLGFGMSQTVGHLDFFPNGGKQMPGCQKNILSQIVDIDGIWEGTRDFVACNHLRSYKYYADSILNPDGFAGFPCDSYNVFTANKCFPCPSEGCPQMGHYADRFPGKTNGVSQVFYLNTGDASNFARWRYKVSVTLSGKKVTGHILVSLFGNEGNSRQYEIYKGTLQPDNTHSDEFDSDVEVGDLQKVKFIWYNNNVINPTLPRVGASKITVERNDGKVYDFCSQETVREEVLLTLNPC
- buffer pH (optimal pH for enzyme activity in anhydrous solvents) [2]: 7.0
- SheptaAs [2]: 13.5%
- ShexaAs [2]: 0.6%
- SOA [2]: 85.9%
- regiochemistry 4'OH [3, 7]: 1
- regiochemistry 6'OH [3, 7]: 1
- buffer pH (optimal pH for enzyme activity in anhydrous diisopropyl ether) [3]: 7.0
- regioselectivity of SOA deacetylation [3]: the primary deacetylation product is the 4'- OH heptaacetate
- regioselectivity of SOA deacetylation ([3]; listed as Porcine pancreatic lipase): at the 4' position
- % conv [3]: 14.1%
- SheptaP's (9.2 min) ([4]; HPLC peak 9.2 min): 0.2
- SheptaP's ([…]) [4]: 1.7
- BuOpropionate ([4]; butyl propionate formed, peak area): 59 cAUs
- SOP [4]: 98.1%
- buffer pH (optimal pH for enzyme activity in anhydrous media) [5]: 7.0
- SOP [5]: 96.5%
- SheptaP's [5]: 3.5%
- ShexaP's [5]: 0%
- capability of deacetylating SOP ([5]; pH precipitated, in words): capable of deacetylating SOP
- enzyme activity [6]: 50 U/mg
